In test [1] the target is T1, human aquaporin 4 (hAQP4) M23 isoform (human, UniProt P55087 1-323). The test can be described thus: cell ELISA on live CHO cells expressing hAQP4 M23, 37 °C 1 h, 4-parameter logistic fit.
In test [2] the target is T1, human aquaporin 4 (hAQP4) M23 isoform. The test can be described thus: ELISA on plates coated with budded baculovirus expressing human AQP4 M23. For orientation: In an ELISA, binding on a coated surface is turned into a signal by an enzyme label.

T1 sequence (P55087 whole entry, canonical isoform): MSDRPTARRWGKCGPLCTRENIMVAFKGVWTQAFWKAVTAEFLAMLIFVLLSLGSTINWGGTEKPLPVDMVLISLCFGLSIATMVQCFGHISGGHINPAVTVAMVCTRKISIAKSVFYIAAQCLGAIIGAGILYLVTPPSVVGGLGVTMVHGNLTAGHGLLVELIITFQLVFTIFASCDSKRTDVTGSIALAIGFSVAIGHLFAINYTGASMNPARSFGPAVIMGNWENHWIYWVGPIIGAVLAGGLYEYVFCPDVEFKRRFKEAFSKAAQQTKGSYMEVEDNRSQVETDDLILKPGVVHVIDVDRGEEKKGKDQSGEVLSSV

B1: anti-aquaporin 4 monoclonal antibody produced by hybridoma clone C9401 (antibody, V domains shown)
VH: QVQLQQSGPELVKPGASVRISCKASGYTFTNYYIHWVKQRPGQGLEWIGWIYPGNVNTKKNEKFKGKATLTADKSSSTAYMQLSSLTSEDSAVYFCARGVPYAFWGQGTLVTVSA
VL: DIVLTQSPASLAVSLGQRATISCRASKSVDSYGNSFMHWYQQKPGQPPKLLIYRASNLESGIPARFSGSGSRTDFTLTINPVEADDVATYYCQQSNEDPPTFGGGTKLEIKR
notes: also called C9401 antibody; original antibody (C9401)
The term EC50 denotes the concentration at which the effect is half-maximal. A high value points to a need for much substance. As for B1, the EC50 in test [1] was determined as 162 pM; in test [2], 166 pM.

B2: anti-aquaporin 4 monoclonal antibody produced by hybridoma clones D15107 and D15129 (same antibody) (antibody, V domains shown)
VH: QVQLKESGPGLVAPSQSLSITCTVSGFSLTSYGVHWVRQPPGKGLEWLGVIWAGRRTNYNSALMSRLSISKDNSKSQVFLKMNSLQTDDTAMYYCARGDGIFPYWGQGTLVTVSA
VL: DIVLTQSPGSLAVSLGQRATISCRASESVDSYGNSFMHWYQQKSGQPPKLLIYRASNLESGIPARFSGSGSRTDFTLTINPVEADDVATYYCQQSNEDPFTFGSGTKLEIKR
notes: Mouse antibody from hybridomas; They are therefore one molecule here, and the rows keep the printed label; also called D15107 (D15129); D15107/D15129
In test [1], B2 gave an EC50 of 150 pM.

B3: anti-aquaporin 4 monoclonal antibody produced by hybridoma clone D12092 (antibody, V domains shown)
VH: QVQLKESGPGLVAPSQSLSITCTVSGFSLTRYGVHWVRQPPGKGLEWLVVIWSDGSTTYNSALKSRLSISKDNSKSQVFLKMNSLQTDDTAIYYCARGPPFAYWGQGTLVTVST
VL: DIVLTQSPASLAVSLGQRATISCRASKSVDSYGNSFMHWYQQKPGQPPKLLIYRASNLESGIPARFSGSGSRTDFTLTINPVEADAVATYYCQQSYEDPPTFGAGTKLEIKR
notes: Mouse antibody from a hybridoma; also called D12092 antibody
As to B3, a half-maximal effect in test [1] (EC50) was put at 116 pM.

Values taken from patent WO2014196658A1 (dated 2014).
